Data reported in patent US20220064286A1 (Genentech, published 2022).

How the values were obtained:
hTIGIT mutant E60A [1] = biological target: T1, hTIGIT mutant E60A (human, UniProt Q495A1); test: SPR (BIACORE), N=2
T1 sequence (TIGIT, looked up): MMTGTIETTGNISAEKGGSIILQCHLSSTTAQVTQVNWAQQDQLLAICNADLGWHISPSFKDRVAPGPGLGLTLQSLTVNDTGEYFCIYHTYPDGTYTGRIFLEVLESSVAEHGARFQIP

hTIGIT mutant I68A [2] = biological target: T2, hTIGIT mutant I68A (human, UniProt Q495A1); test: SPR (BIACORE), N=2
T2 sequence (TIGIT, looked up): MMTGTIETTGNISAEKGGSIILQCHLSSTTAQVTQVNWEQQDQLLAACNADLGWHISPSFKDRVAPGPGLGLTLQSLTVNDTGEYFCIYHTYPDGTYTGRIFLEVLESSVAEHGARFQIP

hTIGIT mutant Y113A [3] = biological target: T3, hTIGIT mutant Y113A (human, UniProt Q495A1); test: SPR (BIACORE), N=2
T3 sequence (TIGIT, looked up): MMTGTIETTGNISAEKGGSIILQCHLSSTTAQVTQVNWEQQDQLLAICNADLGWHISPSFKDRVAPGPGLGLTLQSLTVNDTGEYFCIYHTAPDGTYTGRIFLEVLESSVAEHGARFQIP

human TIGIT protein [4] = biological target: T4, human TIGIT protein (human, UniProt Q495A1 22-141, limits assumed); test: SPR (BIACORE), N=2
T4 construct: Recombinant protein (Genentech) used in ELISA screening and as SPR analyte; also called TIGIT antigen
T4 sequence: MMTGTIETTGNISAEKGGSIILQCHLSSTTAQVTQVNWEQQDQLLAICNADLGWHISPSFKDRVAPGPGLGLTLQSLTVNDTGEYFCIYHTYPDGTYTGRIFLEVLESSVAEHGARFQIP

hTIGIT mutant Q56A [5] = biological target: T5, hTIGIT mutant Q56A (human, UniProt Q495A1); test: SPR (BIACORE), N=2
T5 sequence (TIGIT, looked up): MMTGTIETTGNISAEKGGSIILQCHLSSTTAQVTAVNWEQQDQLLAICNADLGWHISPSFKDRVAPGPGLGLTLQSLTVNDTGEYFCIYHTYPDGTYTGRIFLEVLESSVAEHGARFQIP

hTIGIT mutant H111A [6] = biological target: T6, hTIGIT mutant H111A (human, UniProt Q495A1); test: SPR (BIACORE), N=2
T6 sequence (TIGIT, looked up): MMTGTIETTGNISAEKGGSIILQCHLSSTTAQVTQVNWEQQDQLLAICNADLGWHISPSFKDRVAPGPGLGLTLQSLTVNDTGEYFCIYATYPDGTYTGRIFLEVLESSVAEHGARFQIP

hTIGIT mutant T117A [7] = biological target: T7, hTIGIT mutant T117A (human, UniProt Q495A1); test: SPR (BIACORE), N=2
T7 sequence (TIGIT, looked up): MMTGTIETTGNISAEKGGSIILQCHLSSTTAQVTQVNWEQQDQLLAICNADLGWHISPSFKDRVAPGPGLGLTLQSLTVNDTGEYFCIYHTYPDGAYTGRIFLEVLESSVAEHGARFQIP

hTIGIT mutant N70A [8] = biological target: T8, hTIGIT mutant N70A (human, UniProt Q495A1); test: SPR (BIACORE), N=2
T8 sequence (TIGIT, looked up): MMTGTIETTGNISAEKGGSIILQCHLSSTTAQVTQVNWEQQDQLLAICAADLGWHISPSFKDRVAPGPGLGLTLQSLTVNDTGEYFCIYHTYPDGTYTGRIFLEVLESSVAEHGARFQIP

hTIGIT mutant L65A [9] = biological target: T9, hTIGIT mutant L65A (human, UniProt Q495A1); test: SPR (BIACORE), N=2
T9 sequence (TIGIT, looked up): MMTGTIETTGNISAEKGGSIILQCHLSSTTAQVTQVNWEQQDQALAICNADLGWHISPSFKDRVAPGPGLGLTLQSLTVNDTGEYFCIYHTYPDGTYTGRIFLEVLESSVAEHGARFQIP

hTIGIT mutant Q53A [10] = biological target: T10, hTIGIT mutant Q53A (human, UniProt Q495A1); test: SPR (BIACORE), N=2
T10 sequence (TIGIT, looked up): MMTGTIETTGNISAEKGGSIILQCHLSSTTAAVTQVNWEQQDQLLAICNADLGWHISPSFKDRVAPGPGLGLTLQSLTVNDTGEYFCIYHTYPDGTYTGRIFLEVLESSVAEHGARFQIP

human TIGIT protein [11] = biological target: T4, human TIGIT protein; test: SPR, captured mAb
[12] = biological target: T11, cynomolgus monkey (cyno) TIGIT protein (cynomolgus monkey, UniProt A0A7N9I9V4 89-209); test: SPR, captured mAb
hTIGIT mutant E60A [13] = biological target: T1, hTIGIT mutant E60A; test: SPR (BIACORE) KD normalized to WT, N=2
hTIGIT mutant I68A [14] = biological target: T2, hTIGIT mutant I68A; test: SPR (BIACORE) KD normalized to WT, N=2
hTIGIT mutant Y113A [15] = biological target: T3, hTIGIT mutant Y113A; test: SPR (BIACORE) KD normalized to WT, N=2
human TIGIT protein [16] = biological target: T4, human TIGIT protein; test: SPR (BIACORE) KD normalized to WT, N=2
hTIGIT mutant Q56A [17] = biological target: T5, hTIGIT mutant Q56A; test: SPR (BIACORE) KD normalized to WT, N=2
hTIGIT mutant H111A [18] = biological target: T6, hTIGIT mutant H111A; test: SPR (BIACORE) KD normalized to WT, N=2
hTIGIT mutant T117A [19] = biological target: T7, hTIGIT mutant T117A; test: SPR (BIACORE) KD normalized to WT, N=2
hTIGIT mutant N70A [20] = biological target: T8, hTIGIT mutant N70A; test: SPR (BIACORE) KD normalized to WT, N=2
hTIGIT mutant L65A [21] = biological target: T9, hTIGIT mutant L65A; test: SPR (BIACORE) KD normalized to WT, N=2
hTIGIT mutant Q53A [22] = biological target: T10, hTIGIT mutant Q53A; test: SPR (BIACORE) KD normalized to WT, N=2
human TIGIT protein [23] = biological target: T4, human TIGIT protein; test: SPR, against h7E7.L1H1 (implied)
Experimental: (§1) Briefly, a series S CM5 biosensor chip was activated with N-ethyl-N′-(3-dimethylaminopropyl)-carbodiimide hydrochloride (EDC) and N-hydroxysuccinimide (NHS) reagents according to the supplier's (GE Healthcare Biosciences, Piscataway, N.J.) instructions, and a human antibody capture kit was applied to couple goat anti-human Fc IgGs in order to achieve approximately 10,000 response units (RU) on each flow cell, followed by blocking un-reacted groups with 1M ethanolamine.
(§2) (flow rate: 30 μl/min) with no regeneration between injections. The sensorgrams were recorded and evaluated by BIAcore™ T200 Evaluation Software (version 2.0) after subtraction of reference cell signal. Association rates (kₒₙ) and dissociation rates (koff) were calculated using a simple one-to-one Langmuir binding model. The equilibrium dissociation constant (KD) was calculated as the ratio koff/kₒₙ.
(§3) The first humanized versions, h6B2, L1H1, h10A5.L1H1, h7E7, L1H1, and h15C8.L1H1, which contain both rat CDRs and framework residues at Vernier positions, and the fully humanized versions, h6B2.L2H5, h10A5.L4H4, h7E7.L5H9, and h15C8.L5H9, which contain only rat CDRs were subject to BIAcore affinity measurement by comparison with original rat antibodies, rat6B2, rat10A5, rat7E7 and rat 15C8. For binding affinity determinations of TIGIT antibodies against human TIGIT, cynomolgus monkey TIGIT and human alanine-scanned TIGIT mutants by single-cycle kinetics, Surface Plasmon Resonance (SRP) measurement with a BIACORE™-T200 instrument was used, as described above.

[24] = biological target: T11, cynomolgus monkey (cyno) TIGIT protein; test: SPR, against h7E7.L1H1 (implied)
Experimental: as §1, §2, §3

T11 sequence (A0A7N9I9V4 entry or part of it): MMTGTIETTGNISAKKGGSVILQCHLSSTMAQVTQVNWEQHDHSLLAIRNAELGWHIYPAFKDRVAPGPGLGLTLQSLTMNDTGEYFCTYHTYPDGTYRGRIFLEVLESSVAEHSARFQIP

B1: h6B2.L2H5 (antibody, V domains shown)
VH: EVTLKESGPALVKPTQTLTLTCTFSGFSLSTYGMGVSWIRQPPGKALEWLASIWWNGNTYYNPSLKSRLTITKDTSKNQVVLTMTNMDPVDTATYYCAHTGGAVITWFAYWGQGTLVTVSS
VL: DIQMTQSPSSLSASVGDRVTITCKASQSVGKNIAWYQQKPGKAPKLLIYYASNRYTGVPSRFSGSGSGTDFTFTISSLQPEDIATYYCQHIYNSPYPFGQGTKVEIK
notes: Fully humanized version; FR/HVR pieces in order
With B1 the Kd (hTIGIT mutant E60A [1]) was 2.4 nM, the Kd (hTIGIT mutant I68A [2]) was 11.5 nM and the Kd (hTIGIT mutant Y113A [3]) was 2.5 nM. For the same binder, the Kd (human TIGIT protein [4]) was 0.7 nM, the Kd (hTIGIT mutant Q56A [5]) was 1.3 nM and the Kd (hTIGIT mutant H111A [6]) was 1.3 nM. It also gave a Kd (hTIGIT mutant T117A [7]) of 1.1 nM, a Kd (hTIGIT mutant N70A [8]) of 2.8 nM and a Kd (hTIGIT mutant L65A [9]) of 3 nM. The Kd (hTIGIT mutant Q53A [10]) was 0.9 nM, the Kd (human TIGIT protein [11]) was 0.48 nM and the koff (human TIGIT protein [11]) was 0.00222 s⁻¹. It also gave a kon (human TIGIT protein [11]) of 4.65e+06 M⁻¹ s⁻¹, a Kd [12] of 0.97 nM and a koff [12] of 0.00124 s⁻¹. The kon [12] was 1.28e+06 M⁻¹ s⁻¹, the “Binding affinity drop vs. WT” value (hTIGIT mutant E60A [13]) was 3.4 fold and the “Binding affinity drop vs. WT” value (hTIGIT mutant I68A [14]) was 16.4 fold. For the same binder, the “Binding affinity drop vs. WT” value (hTIGIT mutant Y113A [15]) was 3.6 fold, the “Binding affinity drop vs. WT” value (human TIGIT protein [16]) was 1 fold and the “Binding affinity drop vs. WT” value (hTIGIT mutant Q56A [17]) was 1.9 fold. For the same binder, the “Binding affinity drop vs. WT” value (hTIGIT mutant H111A [18]) was 1.9 fold, the “Binding affinity drop vs. WT” value (hTIGIT mutant T117A [19]) was 1.6 fold and the “Binding affinity drop vs. WT” value (hTIGIT mutant N70A [20]) was 4 fold. The “Binding affinity drop vs. WT” value (hTIGIT mutant L65A [21]) was 4.3 fold and the “Binding affinity drop vs. WT” value (hTIGIT mutant Q53A [22]) was 1.3 fold.

B2: h7E7.L1H2 (antibody, V domains shown)
VH: EVQLVQSGAEVKKPGASVKVSCKASGYTFTEYSIYWVRQAPGQRLEWIGRIDPKNGRTYYVDKFKNRATLTADTSASTAYMELSSLRSEDTAVYFCTRIYGFYFDFWGQGTLVTVSS
VL: DIQLTQSPSFLSASVGDRVTITCKGSQNVNKYLVWYQQKPGKAPKLLIYNTDNLQSGIPSRFSGSGSGTEYTLTISSLQPEDFATYFCYQYNNGFTFGQGTKVEIK
notes: VH: I47W against h7E7.L1H1; FR/HVR pieces
B2 was tested, and the “fold drop in binding affinity” value (human TIGIT protein [23]) was greater than 100 fold and the “fold drop in binding affinity” value [24] was greater than 100 fold.

B3: h7E7.L5H9 (antibody, V domains shown)
VH: EVQLVQSGAEVKKPGASVKVSCKASGYTFTEYSIYWVRQAPGQRLEWMGRIDPKNGRTYYVDKFKNRVTITRDTSASTAYMELSSLRSEDTAVYYCARIYGFYFDFWGQGTLVTVSS
VL: DIQLTQSPSFLSASVGDRVTITCKGSQNVNKYLVWYQQKPGKAPKLLIYNTDNLQSGVPSRFSGSGSGTEFTLTISSLQPEDFATYYCYQYNNGFTFGQGTKVEIK
notes: Fully humanized version; FR/HVR pieces
With B3 the Kd (human TIGIT protein [11]) was greater than 100 nM, the Kd [12] was greater than 100 nM and the “fold drop in binding affinity” value (human TIGIT protein [23]) was greater than 100 fold. For the same binder, the “fold drop in binding affinity” value [24] was greater than 100 fold.
